Source: patent publication US20200181258A1
pKd: −log10 of the molar value.

Target: canine FcRn-β2M complex (canine)
Experiment: SPR, antibody captured on Protein L, soluble FcRn 920 and 460 nM, pH 6.0, 25 C

YTE-b12 canine IgGB (antibody)
pKd: 6.82
